We go through 2 molecules from patent publication US20260209363A1 (Chugai, published 2026).

The target of one assay is T1, mouse albumin (mouse, UniProt P07724 25-608).
T1 construct: also called recombinant mouse Albumin; mouse serum albumin
The experiment in a line: SPR (Biacore T200), antibody captured by anti-human Fc antibody, mouse albumin as analyte, 25 degrees C. As to the method:
Binding activities of the produced antibodies against mouse albumin were evaluated using Biacore T200 (Cytiva).
As the running buffer, 50 mM Na Phosphate (pH 7.4), 150 mM NaCl, 0.05% Tween20 was used, and the evaluation was performed at 25 degrees C. First, anti-human Fc antibody (Cytiva) was used as a ligand-capturing molecule. Anti-human Fc antibody (Cytiva) was solid-phased on a Series S Sensor Chip CM4 (Cytiva) using an Amine Coupling Kit (Cytiva). Antibody solution prepared using the running buffer was allowed to interact with this CM4 sensor chip to capture approximately 120 RU of the antibody. Mouse albumin (Bioscience) was diluted to 0 and 300 nM with the running buffer and allowed to bind to the captured antibody. The chip was regenerated using 3 M MgCl₂, and measurements were performed by repeatedly capturing the antibodies. Dissociation constant (KD) of each antibody for mouse albumin was calculated using Biacore T200 Evaluation Software 2.0. Specifically, the association rate constant ka (L/mol/s) and the dissociation rate constant kd (1/s) were calculated by global fitting of the sensorgrams obtained by measurement with the 1:1 Langmuir binding model, and the dissociation constant KD (mol/L) was calculated from these values.

In assay [1] the target is T2, human soluble IL-6R (human, UniProt P08887 20-357, limits assumed).
T2 construct: Soluble form; also called sIL6R; Human IL-6R
T2 sequence (looked up): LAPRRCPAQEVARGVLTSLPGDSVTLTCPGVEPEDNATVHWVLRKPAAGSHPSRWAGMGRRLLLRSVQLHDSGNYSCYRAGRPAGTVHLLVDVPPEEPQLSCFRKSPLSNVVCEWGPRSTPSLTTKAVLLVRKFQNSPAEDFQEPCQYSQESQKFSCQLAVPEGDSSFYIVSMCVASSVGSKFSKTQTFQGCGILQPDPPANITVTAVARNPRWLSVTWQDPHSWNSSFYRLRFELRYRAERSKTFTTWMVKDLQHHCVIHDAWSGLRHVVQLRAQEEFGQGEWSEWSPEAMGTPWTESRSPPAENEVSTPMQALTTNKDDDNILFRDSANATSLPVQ
In words: Gyrolab xP immunoassay of antibody-antigen complex in C57BL/6J mouse plasma (albumin present), 1 nM antibody, 4 nM antigen.

The next assay has as its target T3, rat albumin (rat, UniProt P02770 25-608).
T3 construct: also called albumin in SD rat plasma
In words: inferred from reduced antigen complex in rat plasma (Gyrolab xP).

The next assay addresses T4, human albumin (human, UniProt P02768 25-609).
T4 construct: also called albumin in human plasma
The experiment in a line: inferred from reduced antigen complex in human plasma (Gyrolab xP).

For assay [2], the target named is T2, human soluble IL-6R. The experiment in a line: in vivo KD in mouse plasma (albumin present), from total antibody, free and bound sIL6R 5 min after sIL6R; antibody 1 mg/kg IV. The protocol: (§1) Next, free sIL6R in plasma was measured. The concentration of free sIL6R in plasma was measured on a fully automated ELISA system (Gyrolab xP workstation). First, sIL6R prepared at 23.4, 46.9, 93.8, 188, 375, 750, and 1500 ng/mL using a Protein-Free (PBS) Blocking Buffer (Thermo Scientific) was used as solutions for preparing the calibration curve. Mouse plasma samples were used in the measurements without diluting them. A solution of biotin-labeled H54 diluted to 10 micro g/mL using a Protein-Free (PBS) Blocking Buffer was used as a solution of the sIL6R-capturing molecule. Alexa Fluor (registered trademark) 647-labeled anti-human IL-6R antibody (R&D Systems) diluted to 1 micro g/mL using a Protein-Free (PBS) Blocking Buffer was used as a solution of the human IL-6R-detection molecule. PBS (pH 7.4) containing 0.05% TWEEN was used as a washing solution. The calibration curve solutions, mouse plasma samples, sIL6R-capturing molecule solution, sIL6R-detection molecule solution, and the washing solution were placed onto a PCR plate, and then the PCR plate was sealed with a plate sealer. After the PCR plate and the Bioaffy 200 disc were placed in the Gyrolab xP workstation, measurements were taken. Using the data processed by the Gyros Evaluater 3.6.2.30 software and the calibration curve concentrations, the concentration of free sIL6R in plasma was calculated by logistic regression using the XLfit 5.5.0.5 software.
Additionally, bound sIL6R in plasma was measured. The concentration of bound sIL6R in plasma was measured on an electrospray ionization mass spectrometer connected to a high-performance liquid chromatography (LC/ESI-MS/MS). First, H54//IC17 and sIL6R were mixed, and solutions for preparing the calibration curve of bound sIL6R were prepared at theoretical plasma concentrations of 0.0468, 0.467, 4.60, and 20.1 nmol/mL. The solutions for preparing the calibration curve and 1 or 2 micro L of a plasma sample were added to 75 or 150 micro g of magnetic beads (Magnosphere MS300/Carboxyl, JSR) to which anti-delta GK antibodies were solid-phased, and this was shaken at 25 degrees C. for one hour.

In assay [3] the target is T2, human soluble IL-6R. The experiment in a line: SPR (Biacore T200), antibody captured on Protein G, human IL-6R as analyte, 37 degrees C, no albumin. As to the method: Binding activities of the produced albumin switch molecules against human IL-6R were evaluated using Biacore T200 (Cytiva). As the running buffer, 50 mM Na Phosphate (pH 7.4), 150 mM NaCl, 0.05% Tween20 was used, and the evaluation was performed at 37 degrees C. First, Protein G (CALBIOCHEM) was used as a ligand-capturing molecule. Protein G (CALBIOCHEM) was solid-phased on a Series S Sensor Chip CM4 (Cytiva) using an Amine Coupling Kit (Cytiva). Antibody solution prepared using the running buffer was allowed to interact with this CM4 sensor chip to capture approximately 200 RU of the antibody. Human IL-6R used in the present measurement was prepared by an approach described in WO2018097307 (Example 3-2). Human IL-6R was diluted to 0, 100, and 400 nM with the running buffer, and allowed to bind to the captured antibody. The chip was regenerated using 3 M MgCl₂, and measurements were performed by repeatedly capturing the antibodies. Dissociation constant (KD) of each antibody for human IL-6R was calculated using Biacore T200 Evaluation Software 2.0. Specifically, the association rate constant ka (L/mol/s) and the dissociation rate constant kd (1/s) were calculated by global fitting of the sensorgrams obtained by measurement with the 1:1 Langmuir binding model, and the dissociation constant KD (mol/L) was calculated from these values.
(Surface plasmon resonance follows binding to a sensor surface in real time, without labels.)

The target of assay [4] is T2, human soluble IL-6R. In words: in vivo KD in mouse plasma (albumin present), from total antibody, free and bound sIL6R 5 min after sIL6R; antibody 0.2 mg/kg IV. The protocol: as §1
Additionally, bound sIL6R in plasma was measured. The concentration of bound sIL6R in plasma was measured on an electrospray ionization mass spectrometer connected to a high-performance liquid chromatography (LC/ESI-MS/MS). First, H54//IC17 and sIL6R were mixed, and solutions for preparing the calibration curve of bound sIL6R were prepared at theoretical plasma concentrations of 0.0468, 0.467, 4.60, and 20.1 nmol/mL. […]

T3 sequence (P02770 25-608 limits assumed): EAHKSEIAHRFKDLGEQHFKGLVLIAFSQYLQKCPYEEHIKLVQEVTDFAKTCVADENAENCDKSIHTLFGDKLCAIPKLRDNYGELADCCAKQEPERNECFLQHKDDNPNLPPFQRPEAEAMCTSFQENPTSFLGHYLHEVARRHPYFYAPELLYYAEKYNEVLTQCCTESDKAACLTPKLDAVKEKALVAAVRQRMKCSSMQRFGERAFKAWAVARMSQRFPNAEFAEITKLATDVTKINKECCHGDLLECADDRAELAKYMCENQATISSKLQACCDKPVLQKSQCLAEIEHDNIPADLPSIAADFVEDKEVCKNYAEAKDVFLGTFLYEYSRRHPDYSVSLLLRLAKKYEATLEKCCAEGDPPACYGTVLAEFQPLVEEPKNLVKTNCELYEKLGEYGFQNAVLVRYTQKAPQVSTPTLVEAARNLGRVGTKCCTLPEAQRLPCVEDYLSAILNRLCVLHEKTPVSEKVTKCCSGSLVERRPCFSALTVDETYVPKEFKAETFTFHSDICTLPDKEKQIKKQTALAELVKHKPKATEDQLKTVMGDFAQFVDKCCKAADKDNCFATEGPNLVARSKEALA
T4 sequence (P02768 25-609 limits assumed): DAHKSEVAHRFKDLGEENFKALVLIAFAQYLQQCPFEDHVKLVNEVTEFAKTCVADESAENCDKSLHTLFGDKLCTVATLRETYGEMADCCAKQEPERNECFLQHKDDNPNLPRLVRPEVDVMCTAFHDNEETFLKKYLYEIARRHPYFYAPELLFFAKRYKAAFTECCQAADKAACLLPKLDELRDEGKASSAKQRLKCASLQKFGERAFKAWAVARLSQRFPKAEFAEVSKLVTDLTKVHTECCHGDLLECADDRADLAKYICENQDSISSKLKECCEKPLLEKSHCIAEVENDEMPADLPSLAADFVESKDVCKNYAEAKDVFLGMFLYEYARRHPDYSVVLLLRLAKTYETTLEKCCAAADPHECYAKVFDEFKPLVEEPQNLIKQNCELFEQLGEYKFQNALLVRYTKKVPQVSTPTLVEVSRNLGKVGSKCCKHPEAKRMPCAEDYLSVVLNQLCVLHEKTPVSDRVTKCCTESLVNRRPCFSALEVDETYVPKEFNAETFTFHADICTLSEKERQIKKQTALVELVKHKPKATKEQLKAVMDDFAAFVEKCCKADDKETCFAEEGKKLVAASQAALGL

B1: ABD094(H/L)-H54//IC17 (bispecific antibody, human IgG1, kappa)
heavy 1: LAEAKEAANAELDSYGVSDFYKRLIDKAKTVEGVEALKDAILAALPQVQLQESGPGLVKPSETLSLTCAVSGYSISDDQAWSWVRQPPGEGLEWIGYISYSGITNYNPSLKGRVTISRDTSKNQFSLKLSSVTAADTAAYYCARSLARTTAMDYWGEGTLVTVSSASTKGPSVFPLAPSSKSTSGGTAALGCLVEDYFPEPVTVSWNSGALTSGVHTFPAVLQSSGLYSLSSVVTVPSSSLGTQTYICNVNHKPSNTKVDERVEPKSCDKTHTCPPCPAPELRRGPSVFLFPPKPKDTLMISRTPEVTCVVVDVSHEDPEVKFNWYVDGVEVHNAKTKPREEQYNSTYRVVSVLTVLHQDWLNGKEYKCKVSNKALPAPIEKTISKAKGQPREPQVCTLPPSREEMTKNQVSLSCAVKGFYPSDIAVEWESNGQPENNYKTTPPVLDSDGSFFLVSKLTVDKSRWQQGNVFSCSVMHEALHNHYTQKSLSLSP
light 1: LAEAKEAANAELDSYGVSDFYKRLIDKAKTVEGVEALKDAILAALPDIQMTQSPSSLSASVGDSVTITCQASQDISSYLNWYQQKPGKAPELLIYYGSELHSGVPSRFSGSGSGTDFTFTISSLEAEDAATYYCQQGNSLPYTFGQGTKVEIERTVAAPSVFIFPPSDRKLKSGTASVVCLLNNFYPREAKVQWKVDNALQSGNSQESVTEQDSKDSTYSLSSTLTLSKADYEKHKVYACEVTHQGLSSPVTKSFNRGEC
heavy 2: not shown
light 2: QVQLQQSGPQLVRPGASVKISCKASGYSFTSYWMHWVNQRPGQGLEWIGMIDPSYSETRLNQKFKDKATLTVDKSSSTAYMQLSSPTSEDSAVYYCALYGNYFDYWGQGTTLTVSSASVAAPSVFIFPPSDEQLKSGTASVVCLLNNFYPREAKVQWKVDNALQSGNSQESVTEQDSKDSTYSLSSTLTLSKADYEKHKVYACEVTHQGLSSPVTKSFNRGEC
notes: also called anti-IL6R albumin switch molecule
Take B1: the dissociation constant Kd (in general, a measure of binding affinity in units of concentration) in the assay with mouse albumin amounted to 19.4 nM; with human soluble IL-6R [2], 306 nM; with human soluble IL-6R [3] it was 3.7 nM; in the assay with human soluble IL-6R [4], 141 nM. The results for the koff with mouse albumin and with human soluble IL-6R [3] were 0.00112 s⁻¹ and 0.000779 s⁻¹, respectively. In addition, the kon (as a rule, the second-order rate constant of association) with mouse albumin was 57600 M⁻¹ s⁻¹; in the assay with human soluble IL-6R [3] it was 210000 M⁻¹ s⁻¹. In the assay with human soluble IL-6R [1], the “decrease in the signal derived from the complex, compared to H54//IC17” value came to 95%. In addition, the binding result in the assay with rat albumin and with human albumin was “binds” throughout.

B2: ABP(H/L).N13-H54//IC17 (bispecific antibody, human IgG1, kappa)
heavy 1: QRLMEDICLPRWGCLWEDDFGGGSQVQLQESGPGLVKPSETLSLTCAVSGYSISDDQAWSWVRQPPGEGLEWIGYISYSGITNYNPSLKGRVTISRDTSKNQFSLKLSSVTAADTAAYYCARSLARTTAMDYWGEGTLVTVSSASTKGPSVFPLAPSSKSTSGGTAALGCLVEDYFPEPVTVSWNSGALTSGVHTFPAVLQSSGLYSLSSVVTVPSSSLGTQTYICNVNHKPSNTKVDERVEPKSCDKTHTCPPCPAPELRRGPSVFLFPPKPKDTLMISRTPEVTCVVVDVSHEDPEVKFNWYVDGVEVHNAKTKPREEQYNSTYRVVSVLTVLHQDWLNGKEYKCKVSNKALPAPIEKTISKAKGQPREPQVCTLPPSREEMTKNQVSLSCAVKGFYPSDIAVEWESNGQPENNYKTTPPVLDSDGSFFLVSKLTVDKSRWQQGNVFSCSVMHEALHNHYTQKSLSLSP
light 1: QRLMEDICLPRWGCLWEDDFGGGSDIQMTQSPSSLSASVGDSVTITCQASQDISSYLNWYQQKPGKAPELLIYYGSELHSGVPSRFSGSGSGTDFTFTISSLEAEDAATYYCQQGNSLPYTFGQGTKVEIERTVAAPSVFIFPPSDRKLKSGTASVVCLLNNFYPREAKVQWKVDNALQSGNSQESVTEQDSKDSTYSLSSTLTLSKADYEKHKVYACEVTHQGLSSPVTKSFNRGEC
heavy 2: not shown
light 2: QVQLQQSGPQLVRPGASVKISCKASGYSFTSYWMHWVNQRPGQGLEWIGMIDPSYSETRLNQKFKDKATLTVDKSSSTAYMQLSSPTSEDSAVYYCALYGNYFDYWGQGTTLTVSSASVAAPSVFIFPPSDEQLKSGTASVVCLLNNFYPREAKVQWKVDNALQSGNSQESVTEQDSKDSTYSLSSTLTLSKADYEKHKVYACEVTHQGLSSPVTKSFNRGEC
notes: also called ABP(H/L)-H54//IC17
For the molecule B2, the Kd with mouse albumin worked out at 10.2 nM; with human soluble IL-6R [2] it was 13.4 nM; in the assay with human soluble IL-6R [3] it was 2.02 nM; with human soluble IL-6R [4] it was 2 nM. Besides, the figures for the dissociation rate constant (koff) with mouse albumin and with human soluble IL-6R [3] were 0.000443 s⁻¹ and 0.000951 s⁻¹, respectively. For the same molecule, the figures for the kon with mouse albumin and in the assay with human soluble IL-6R [3] were 43500 M⁻¹ s⁻¹ and 471000 M⁻¹ s⁻¹, respectively. Further, the binding result with rat albumin and with human albumin was “binds” each time.
